In the Immune Epitope Database (IEDB) one finds Kd data, which are given here for nine sequences.

A value given as a limit tells only on which side of the number the result lay.

For one experiment, the target named is HLA-A*03:01. Put plainly: IEDB peptide-MHC binding, purified MHC/competitive/fluorescence; filed as Kd, often an IC50 or EC50 that approximates it; ≥ and ≤ were set here for values at or beyond the usual limits of such assays.
A further experiment has as its target HLA-B*35:01. Described as above.
In a further experiment the target is HLA-B*27:03. The experiment is described as above.
For the next experiment, the target named is HLA-A*26:01. The experiment is described as above.
The target of the next experiment is HLA-B*15:17. The experiment is described as above.
Another experiment addresses HLA-A*23:01. Described as above.
The next experiment deals with HLA-B*46:01. Described as above.
The target in another experiment is HLA-A*02:16. The experiment is described as above.
For another experiment, the target named is HLA-A*29:02. The experiment is described as above.
The target of the next experiment is HLA-B*15:01. The experiment is described as above.
In another experiment the target is HLA-B*51:01. The description is as above.
Another experiment concerns the target HLA-A*02:19. The description is as above.
A further experiment addresses HLA-B*57:01. The experiment is described as above.
The next experiment has as its target HLA-B*39:01. The description is as above.
In the next experiment the target is HLA-B*18:01. The experiment is described as above.
In the next experiment the target is HLA-A*02:03. The description is as above.
A further experiment deals with HLA-A*24:03. The description is as above.
A further experiment deals with HLA-A*02:01. The experiment is described as above.
For another experiment, the target named is HLA-A*02:12. The description is as above.
A further experiment concerns the target HLA-A*02:11. The experiment is described as above.
A further experiment deals with HLA-A*69:01. The experiment is described as above.
In another experiment the target is HLA-A*68:02. Described as above.
The target of another experiment is HLA-C*06:02. Put plainly: IEDB peptide-MHC binding, purified MHC/direct/fluorescence; filed as Kd, often an IC50 or EC50 that approximates it; ≥ and ≤ were set here for values at or beyond the usual limits of such assays. The note with it: source organism: Influenza A virus (A/81/HO).
A further experiment addresses HLA-A*01:01. Kind of experiment: IEDB peptide-MHC binding, purified MHC/competitive/fluorescence; filed as Kd, often an IC50 or EC50 that approximates it; ≥ and ≤ were set here for values at or beyond the usual limits of such assays.
For the next experiment, the target named is HLA-B*58:01. The description is as above. As to conditions: source organism: Yersinia pestis Nepal516.
Setting [1] is: source organism: Klebsiella pneumoniae subsp. pneumoniae NTUH-K2044.
Setting [2] is: source organism: Giardia lamblia ATCC 50803.
The mark [3] stands for this setting: source organism: Influenza A virus (A/81/HO).
The mark [4] stands for this setting: source organism: Yersinia pestis Nepal516.
Setting [5] is: source organism: Bacillus anthracis str. A0488.

With KVLSHGWAY, the Kd with HLA-A*03:01 (setting [1]) was 0.429 µM; with HLA-B*35:01 (setting [1]), 0.0267 µM.
NAMGADYYA: the Kd with HLA-B*27:03 (setting [2]), in the experiment with HLA-A*26:01 (setting [2]), with HLA-B*15:17 (setting [2]), with HLA-A*23:01 (setting [2]), with HLA-B*46:01 (setting [2]) and in the experiment with HLA-A*02:16 (setting [2]) was at least 20 µM in each case. The Kd in the experiment with HLA-A*29:02 (setting [2]) was 0.869 µM; with HLA-B*15:01 (setting [2]), at least 20 µM; in the experiment with HLA-A*03:01 (setting [2]) it was at least 20 µM; in the experiment with HLA-B*51:01 (setting [2]), at least 20 µM; with HLA-A*02:19 (setting [2]), 0.0151 µM; with HLA-B*57:01 (setting [2]), at least 20 µM. Further, the Kd with HLA-B*39:01 (setting [2]), with HLA-B*18:01 (setting [2]), in the experiment with HLA-A*02:03 (setting [2]), in the experiment with HLA-A*24:03 (setting [2]) and with HLA-A*02:01 (setting [2]) was at least 20 µM each time.
For the sequence TEDDWITYI, the Kd with HLA-B*27:03 (setting [2]), with HLA-A*26:01 (setting [2]), in the experiment with HLA-B*15:17 (setting [2]), with HLA-A*02:12 (setting [2]), with HLA-A*02:11 (setting [2]) and with HLA-A*23:01 (setting [2]) was at least 20 µM in each case. In addition, the Kd was at least 20 µM with HLA-B*46:01 (setting [2]); at least 20 µM with HLA-A*69:01 (setting [2]); 0.402 µM with HLA-A*02:16 (setting [2]); at least 20 µM in the experiment with HLA-A*29:02 (setting [2]); at least 20 µM with HLA-B*15:01 (setting [2]); at least 20 µM in the experiment with HLA-A*68:02 (setting [2]). In addition, the Kd in the experiment with HLA-A*03:01 (setting [2]), in the experiment with HLA-B*51:01 (setting [2]), with HLA-A*02:19 (setting [2]), with HLA-B*57:01 (setting [2]), in the experiment with HLA-B*39:01 (setting [2]) and in the experiment with HLA-B*18:01 (setting [2]) was at least 20 µM each time. For the same sequence, the Kd with HLA-A*02:03 (setting [2]), with HLA-A*24:03 (setting [2]) and with HLA-A*02:01 (setting [2]) was at least 20 µM throughout.
Consider WMACNSAAF, for which the Kd with HLA-C*06:02 is at least 20 µM; with HLA-B*46:01 (setting [3]), 0.109 µM; with HLA-B*15:01 (setting [3]), 0.0146 µM; with HLA-B*35:01 (setting [3]), 0.0002 µM.
FTIRDVLAY: the Kd is 0.0025 µM with HLA-A*01:01 (setting [4]), 0.0041 µM with HLA-B*58:01, at least 20 µM with HLA-A*03:01 (setting [4]) and 0.0013 µM with HLA-B*35:01 (setting [4]).
Turning to FTWSGDVRY, the Kd in the experiment with HLA-A*01:01 (setting [4]) is 0.132 µM; in the experiment with HLA-B*58:01 it was 0.404 µM; with HLA-B*35:01 (setting [4]), at most 0.0001 µM.
For VIMWYNYLF, the Kd with HLA-B*27:03 (source organism: Fowlpox virus) was at least 20 µM; in the experiment with HLA-A*26:01 (source organism: Fowlpox virus), at least 20 µM; with HLA-B*15:17 (source organism: Fowlpox virus), at least 20 µM; with HLA-A*02:12 (source organism: Fowlpox virus) it was at least 20 µM; with HLA-A*02:11 (source organism: Fowlpox virus), 0.0047 µM; with HLA-A*23:01 (source organism: Fowlpox virus), at least 20 µM. Also, the Kd with HLA-B*46:01 (source organism: Fowlpox virus), with HLA-A*69:01 (source organism: Fowlpox virus), in the experiment with HLA-A*02:16 (source organism: Fowlpox virus), in the experiment with HLA-A*29:02 (source organism: Fowlpox virus), with HLA-B*15:01 (source organism: Fowlpox virus) and in the experiment with HLA-A*68:02 (source organism: Fowlpox virus) was at least 20 µM throughout. Moreover, the Kd with HLA-A*03:01 (source organism: Fowlpox virus), in the experiment with HLA-A*02:19 (source organism: Fowlpox virus), in the experiment with HLA-B*57:01 (source organism: Fowlpox virus), with HLA-B*39:01 (source organism: Fowlpox virus), in the experiment with HLA-B*18:01 (source organism: Fowlpox virus) and with HLA-A*02:03 (source organism: Fowlpox virus) was at least 20 µM in each case. The Kd in the experiment with HLA-A*24:03 (source organism: Fowlpox virus) and with HLA-A*02:01 (source organism: Fowlpox virus) was at least 20 µM in each case.
Consider SASLAALFY, for which the Kd came out at 0.0281 µM with HLA-A*01:01 (setting [5]) and 0.0002 µM with HLA-B*35:01 (setting [5]).
For the sequence KLWASFFQG, the Kd with HLA-B*27:03 (setting [5]) is at least 20 µM; with HLA-A*26:01 (setting [5]) it was at least 20 µM; with HLA-A*02:11 (setting [5]), 0.0025 µM; in the experiment with HLA-A*23:01 (setting [5]), at least 20 µM; with HLA-B*46:01 (setting [5]), at least 20 µM; with HLA-A*29:02 (setting [5]), at least 20 µM. For the same sequence, the Kd with HLA-B*15:01 (setting [5]), with HLA-A*03:01 (setting [5]), with HLA-B*51:01 (setting [5]), with HLA-A*02:19 (setting [5]), in the experiment with HLA-B*57:01 (setting [5]) and in the experiment with HLA-B*39:01 (setting [5]) was at least 20 µM each time. Besides, the Kd with HLA-B*18:01 (setting [5]) is at least 20 µM; with HLA-A*02:03 (setting [5]) it was at least 20 µM; in the experiment with HLA-A*24:03 (setting [5]) it was at least 20 µM; with HLA-A*02:01 (setting [5]), 0.104 µM.
